The values below come from patent US20140178394A1.

The target in this experiment is HLA-A*0201 HLA class I MHC monomer (iTopia Epitope Discovery System, coated on plate) (human). As to the kind of experiment: overall rank from iTopia EDS and CEM T2 assays on HLA-A*0201.

SLLMWITQV (modifications not checked) [reference peptide 513 (NY-ESO-1), …] yielded an RANK F-Score of 2.
